Results published in PMC6140609 (Oncoimmunology, 2018).

Target: Human OX40-Fc (human) (UniProt P43489)
Test: ELISA

Sequence of Human OX40-Fc (human) (P43489 29-214): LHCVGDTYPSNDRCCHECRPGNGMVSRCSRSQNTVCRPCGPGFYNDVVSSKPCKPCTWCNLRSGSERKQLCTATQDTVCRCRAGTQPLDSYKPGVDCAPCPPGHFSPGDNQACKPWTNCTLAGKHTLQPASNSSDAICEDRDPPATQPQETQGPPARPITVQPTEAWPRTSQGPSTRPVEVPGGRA

EC50	Molecule
60.2 nM	scOX40L-scCD27L (from UniProt P23510 51-183; P23510 51-183; P23510 51-183; P32970 52-193; P32970 52-193; P32970 52-193) (ligand)
14.3 nM	scCD27L-scOX40L (from UniProt P32970 52-193; P32970 52-193; P32970 52-193; P23510 51-183; P23510 51-183; P23510 51-183) (ligand)

Target: Human CD40-Fc (human, UniProt P25942 21-193)
Test: ELISA

Sequence of Human CD40-Fc (P25942 21-193): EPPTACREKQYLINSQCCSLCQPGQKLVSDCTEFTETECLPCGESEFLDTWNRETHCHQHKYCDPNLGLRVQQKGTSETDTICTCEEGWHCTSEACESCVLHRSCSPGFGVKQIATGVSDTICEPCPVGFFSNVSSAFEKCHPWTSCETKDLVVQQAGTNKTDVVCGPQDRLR

EC50	Molecule
12.3 nM	CD40L-CD27L (ligand, human) GDQNPQIAAHVISEASSKTTSVLQWAEKGYYTMSNNLVTLENGKQLTVKRQGLYYIYAQVTFCSNREASSQAPFIASLCLKSPGRFERILLRAANTHSSAKPCGQQSIHLGGVFELQPGASVFVNVTDPSQVSHGTGFTSFGLLKLGGGGSGGGGSGGGGSSLGWDVAELQLNHTGPQQDPRLYWQGGPALGRSFLHGPELDKGQLRIHRDGIYMVHIQVTLAICSSTTASRHHPTTLAVGICSPASRSISLLRLSFHQGCTIASQRLTPLARGDTLCTNLTGTLLPSRNTDETFFGVQWVRP

Target: the molecule itself
Test: SEC

Molecule	stoichiometry N
CD27L-OX40L (ligand, human) SLGWDVAELQLNHTGPQQDPRLYWQGGPALGRSFLHGPELDKGQLRIHRDGIYMVHIQVTLAICSSTTASRHHPTTLAVGICSPASRSISLLRLSFHQGCTIASQRLTPLARGDTLCTNLTGTLLPSRNTDETFFGVQWVRPGGGGSGGGGSGGGGSQVSHRYPRIQSIKVQFTEYKKEKGFILTSQKEDEIMKVQNNSVIINCDGFYLISLKGYFSQEVNISLHYQKDEEPLFQLKKVRSVNSLMVASLTYKDKVYLNVTTDNTSLDDFHVNGGELILIHQNPGEFCVL	3
CD27L-4-1BBL (ligand, human) SLGWDVAELQLNHTGPQQDPRLYWQGGPALGRSFLHGPELDKGQLRIHRDGIYMVHIQVTLAICSSTTASRHHPTTLAVGICSPASRSISLLRLSFHQGCTIASQRLTPLARGDTLCTNLTGTLLPSRNTDETFFGVQWVRPGGGGSGGGGSGGGGSGGGGSREGPELSPDDPAGLLDLRQGMFAQLVAQNVLLIDGPLSWYSDPGLAGVSLTGGLSYKEDTKELVVAKAGVYYVFFQLELRRVVAGEGSGSVSLALHLQPLRSAAGAAALALTVDLPPASSEARNSAFGFQGRLLHLSAGQRLGVHLHTEARARHAWQLTQGATVLGLFRVTPEIPAGLPSPRSE	3
CD27L-CD40L (ligand, human) SLGWDVAELQLNHTGPQQDPRLYWQGGPALGRSFLHGPELDKGQLRIHRDGIYMVHIQVTLAICSSTTASRHHPTTLAVGICSPASRSISLLRLSFHQGCTIASQRLTPLARGDTLCTNLTGTLLPSRNTDETFFGVQWVRPGGGGSGGGGSGGGGSGDQNPQIAAHVISEASSKTTSVLQWAEKGYYTMSNNLVTLENGKQLTVKRQGLYYIYAQVTFCSNREASSQAPFIASLCLKSPGRFERILLRAANTHSSAKPCGQQSIHLGGVFELQPGASVFVNVTDPSQVSHGTGFTSFGLLKL	3
CD40L-OX40L (ligand, human) GDQNPQIAAHVISEASSKTTSVLQWAEKGYYTMSNNLVTLENGKQLTVKRQGLYYIYAQVTFCSNREASSQAPFIASLCLKSPGRFERILLRAANTHSSAKPCGQQSIHLGGVFELQPGASVFVNVTDPSQVSHGTGFTSFGLLKLGGGGSGGGGSGGGGSQVSHRYPRIQSIKVQFTEYKKEKGFILTSQKEDEIMKVQNNSVIINCDGFYLISLKGYFSQEVNISLHYQKDEEPLFQLKKVRSVNSLMVASLTYKDKVYLNVTTDNTSLDDFHVNGGELILIHQNPGEFCVL	3
OX40L-4-1BBL (ligand, human) QVSHRYPRIQSIKVQFTEYKKEKGFILTSQKEDEIMKVQNNSVIINCDGFYLISLKGYFSQEVNISLHYQKDEEPLFQLKKVRSVNSLMVASLTYKDKVYLNVTTDNTSLDDFHVNGGELILIHQNPGEFCVLGGGGSGGGGSGGGGSGGGGSREGPELSPDDPAGLLDLRQGMFAQLVAQNVLLIDGPLSWYSDPGLAGVSLTGGLSYKEDTKELVVAKAGVYYVFFQLELRRVVAGEGSGSVSLALHLQPLRSAAGAAALALTVDLPPASSEARNSAFGFQGRLLHLSAGQRLGVHLHTEARARHAWQLTQGATVLGLFRVTPEIPAGLPSPRSE	3
OX40L-CD40L (ligand, human) QVSHRYPRIQSIKVQFTEYKKEKGFILTSQKEDEIMKVQNNSVIINCDGFYLISLKGYFSQEVNISLHYQKDEEPLFQLKKVRSVNSLMVASLTYKDKVYLNVTTDNTSLDDFHVNGGELILIHQNPGEFCVLGGGGSGGGGSGGGGSGDQNPQIAAHVISEASSKTTSVLQWAEKGYYTMSNNLVTLENGKQLTVKRQGLYYIYAQVTFCSNREASSQAPFIASLCLKSPGRFERILLRAANTHSSAKPCGQQSIHLGGVFELQPGASVFVNVTDPSQVSHGTGFTSFGLLKL	3
OX40L-CD27L (ligand, human) QVSHRYPRIQSIKVQFTEYKKEKGFILTSQKEDEIMKVQNNSVIINCDGFYLISLKGYFSQEVNISLHYQKDEEPLFQLKKVRSVNSLMVASLTYKDKVYLNVTTDNTSLDDFHVNGGELILIHQNPGEFCVLGGGGSGGGGSGGGGSSLGWDVAELQLNHTGPQQDPRLYWQGGPALGRSFLHGPELDKGQLRIHRDGIYMVHIQVTLAICSSTTASRHHPTTLAVGICSPASRSISLLRLSFHQGCTIASQRLTPLARGDTLCTNLTGTLLPSRNTDETFFGVQWVRP	3
